From patent US20140087401

System: purified spectrin

calpain (added in the in-tube reaction)
spectrin cleavage, gel stained with Coomassie's blue: Purified spectrins undergo calpain-mediated dynamic cleavage in a test tube due to ambient PAV impact
